What all share (settings): chains Vgamma:Vdelta
In assay [1] the target is peptide on (human). The assay is described as follows: IFNγ ELISA, CD4+ transduced T-cells against Daudi, pamidronate titration; full-length, on cells. Details: unit not given here. (In general: An ELISA detects its analyte on a solid surface through an enzyme-linked reagent.)
Assay [2] deals with peptide on (human). The assay is described as follows: IFNγ ELISA, CD4+ transduced T-cells against Daudi, pamidronate titration; against γ9-G115wt/δ2-G115wt (max. 800 pg/ml); full-length, on cells.
Assay [3] deals with peptide on (human). The assay is described as follows: IFNγ ELISA, CD4+ transduced T-cells against Daudi, pamidronate titration; against γ9-G115wt/δ2-G115wt (max. 800 pg/ml); the clone number is missing in the printed name; full-length, on cells.

B1: γ9-cl3wt/δ2-cl3wt (protein)
chain 1: AGHLEQPQISSTKTLSKTARLECVVSGITISATSVYWYRERPGEVIQFLVSISYDGTVRKESGIPSGKFEVDRIPETSTSTLTIHNVEKQDIATYYCALWEEELGKKIKVFGPGTKLIIT
chain 2: AIELVPEHQTVPVSIGVPATLRCSMKGEAIGNYYINWYRKTQGNTMTFIYREKDIYGPGFKDNFQGDIDIAKNLAVLKILAPSERDEGSYYCACDLLGYTDKLIFGKGTRVTVEP
With B1, in assay [1], the EC50 of pamidronate came to 30. This molecule yielded a maximal IFNγ secretion in assay [2] of 600 µg/mL.

B2: γ9-cl3wt/δ2-G115wt (protein)
chain 1: B1 chain 1
chain 2: AIELVPEHQTVPVSIGVPATLRCSMKGEAIGNYYINWYRKTQGNTMTFIYREKDIYGPGFKDNFQGDIDIAKNLAVLKILAPSERDEGSYYCACDTLGMGGEYTDKLIFGKGTRVTVEP
In assay [3], B2 gave a maximal IFNγ secretion of 100 pg/mL.
